The record followed here is the supplement of paper PMC9170038.

This data set relates to MS2 coat protein. Nature of the data set: apparent KD of MS2 coat protein; designed switch direction (-1 OFF switch, 1 ON switch): 1; higher = weaker reporter binding. In a few lines: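 On Illumina chips, designed RNA switches with common flanks were made by stalled E. coli RNA polymerase. Titrations with SNAP-549-labelled MS2 coat protein, doubling from 0.7 or 1.5 nM to 3 µM, were done with no input, with 200 uM small-molecule ligand, or with an oligonucleotide input. Apparent KD is the median per design over clusters, from curve fits of normalised cluster fluorescence.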

Setting [1] is: Eterna round: R95, input ligand: FMN 200 uM.
Setting [2] is: Eterna round: R95, input ligand: microRNA oligo, concentration not stated.
The mark [3] stands for this setting: Eterna round: R95, input ligand: none.
Setting [4] is: input ligand: microRNA oligo, concentration not stated.

In the case of “AAAAGAAGAAGUAAGGAUAUUCAAAAGAAAACAUGAGGAUCACCCAUGUACCAAAAGAAAGAAAAGAAGAAGGUACACAAGAAAA [Same State 2 #3] (puzzle: Same State 2)”, the “apparent KD of MS2 coat protein” value was found to be 24.7 nM under setting [1], 23.2 nM under setting [2] and 22.8 nM under setting [3].
Regarding “AAAAGACAUGAGGAUCACCCAUGUAUGAAAAGUACAGGAUAUCACGCGCUAAAAUGCGAGUGAGAAGGGUGAAAAU [Oronen] (puzzle: Same State 1)”, the “apparent KD of MS2 coat protein” value is, setting by setting: under setting [1], 4350 nM; under setting [2], 51.3 nM; under setting [3], 180 nM.
Consider “AAAAUAAAUACAGGAUAUAGCCGCCUAAAGCGGCUAGAAGGGUAGAUCGAAAUACAUGAGGAUCACCCAUGUGCACGUAAGUGC [Eresesgeti] (Eterna round: R96, puzzle: Same State NG 1)”, for which the “apparent KD of MS2 coat protein” value is, setting by setting: (input ligand: FMN 200 uM) 775 nM; under setting [4], 527 nM; (input ligand: none) 1350 nM.
As to “AAAAUCUACGAAAGUAGAACAAGCUUAAGACAUGAGGAUCACCCAUGUCAUGUCUUAAAACAUGAGGAAACUCAUGA [hsa-mir-208a sensor: 17] (Eterna round: R96, puzzle: Sensor for hsa-mir-208a)”, the “apparent KD of MS2 coat protein” value runs as follows: (input ligand: FMN 200 uM) 273 nM; under setting [4], 182 nM; (input ligand: none) 252 nM.
Consider “AAAAUUGAAUUACAUCUGCUCGUCAUACAACAUGAGGAUCACCCAUGUAACAUCAAACAACCAACCAAACACAAAUC [Ceeslage] (Eterna round: R96, puzzle: Sensor for hsa-mir-208a)”, for which the “apparent KD of MS2 coat protein” value was determined as 20.1 nM (input ligand: FMN 200 uM), 17.5 nM under setting [4] and 22.3 nM (input ligand: none).
Take “AAACGCAGCAUAUCGCUGCGACAUGAGGAUCACCCAUGUACACAGGAUAUCGCAGCAUACCGCCGCGAGAAGGGUGAUCAAGAC [Anonlete] (Eterna round: R96, puzzle: Same State NG 3)”: the “apparent KD of MS2 coat protein” value reads like this: (input ligand: FMN 200 uM) 99.3 nM; under setting [4], 16.3 nM; (input ligand: none) 33.9 nM.
For “AAAGAACAUGAGGAUCACCCAUGUGGAAGAGGCACAGGAUAUCACCUCGCAAGUGCAAGGUGAGAAGGGUGAUGAU [Islaonen] (puzzle: Same State 1)”, the “apparent KD of MS2 coat protein” value by setting is: under setting [1], 123 nM; under setting [2], 425 nM; under setting [3], 205 nM.
Turning to “AACAAUCUAUCUGAGGAUAUCAUGAAAUAAACAUGAGGAUCACCCAUGUGCAGGAAAACUGCAUAUGAGAAGGCAGAUUGAUUGA [salish99_ss2_r3_054] (puzzle: Same State 2)”, the “apparent KD of MS2 coat protein” value is, setting by setting: under setting [1], 56 nM; under setting [2], 2560 nM; under setting [3], 1280 nM.
For the sequence “AACAAUCUAUCUGAGGAUAUCAUGAAAUAAACAUGAGGAUCACCCAUGUUCAGGAAAACUGCAUAUGAGAAGGCAGAUAGAUUGA [salish99_ss2_r3_035] (puzzle: Same State 2)”, the “apparent KD of MS2 coat protein” value under setting [1] was 10.4 nM, the “apparent KD of MS2 coat protein” value under setting [2] was 16.2 nM and the “apparent KD of MS2 coat protein” value under setting [3] was determined as 15.3 nM.
On the same counts, the results for “AACAAUCUAUCUGAGGAUAUCAUGAAAUUAACAUGAGGAUCACCCAUGUGCAGGAAAACUGCAUAUGAGAAGGCAGAUAGAUUGA [salish99_ss2_r3_033] (puzzle: Same State 2)” are 120 nM, 1110 nM and 2020 nM.
“AACAUGUGGUGUUACAUGAGGAUCACCCAUGUGGCAAAAGCUGAGGAUAUCAUUAAACCCAUGAAUGAGAAGGUAGGAUCACAA [AK SSNG3-V2-20] (Eterna round: R96, puzzle: Same State NG 3)”: the “apparent KD of MS2 coat protein” value is, setting by setting: (input ligand: FMN 200 uM) 85.2 nM; under setting [4], 124 nM; (input ligand: none) 127 nM.
